Data on two molecules can be found in publication PMC3810769 (Molecular Biology of the Cell, 2013).

Where two headings read alike, the source gives them in different places.

Broadly, the Kd is a measure of binding affinity in units of concentration. Low values mean higher affinity, high ones lower affinity. A word on the stoichiometry N: it is the number of molecules, sites or subunits per partner or assembly.

The target of assay [1] is T1, nebulette SH3 domain fused to glutathione S-transferase (human (by the printed UniProt entry …, UniProt O76041 954-1014)).
T1 sequence (looked up): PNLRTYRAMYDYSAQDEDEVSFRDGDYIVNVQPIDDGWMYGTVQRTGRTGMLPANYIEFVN
Description: peptide or protein array.

Assay [2] concerns the target T2, nebulin SH3 domain (UniProt P20929 8466-8525).
T2 sequence (looked up): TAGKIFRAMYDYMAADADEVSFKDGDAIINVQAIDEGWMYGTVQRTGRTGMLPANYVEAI
Kind of assay: ITC. A general note: In ITC the heat of successive injections is recorded.

The target in assay [3] is T3, nebulette SH3 domain (residues 955-1014) (human (by the printed UniProt entry …, UniProt O76041 955-1014)).
T3 sequence (looked up): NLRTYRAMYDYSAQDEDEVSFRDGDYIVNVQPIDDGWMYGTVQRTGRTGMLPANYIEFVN
Kind of assay: ITC.

For assay [4], the target named is T2, nebulin SH3 domain. Description: ITC. The source holds these as a separate data set.

As to GVLPPPTLPKPK [XIRP2 PR6 peptide GVLPPPTLPKPK], the binding result in assay [1] is listed as “binds”.
Consider PPPTLPKPKLPKH [synthetic 13-mer XIRP2 peptide PPPTLPKPKLPKH], for which the Kd in assay [2] was determined as 9.3 µM. Further, in assay [3], the Kd is 12.9 µM, the dH was -8.46 kcal/mol and the “stoichiometry N” value stood at 1.12. Moreover, in assay [4], the Kd was 9.61 µM, the dH was -9.43 kcal/mol and the “stoichiometry N” value stood at 1.02.
